Data as given in the nanobody polyreactivity screen of Harvey et al. (2022).

Test: yeast display, Sf9 membrane polyspecificity reagent, FACS + sequencing; frameworks hold sequencing errors
How it was run: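 A synthetic nanobody library was expressed on Saccharomyces cerevisiae BJ5465 by galactose induction for 36–48 hours. The library was stained for 1 hour at 4 °C with 10% biotinylated, detergent-solubilized Sf9 membrane reagent and enriched with streptavidin microbeads before FACS. Low and high (top ~1%) gates were set on anti-HA fluorescence for expression and streptavidin fluorescence for reagent binding, and each polyreactivity label reflects the gate of origin.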

Row | Sequence | polyreactivity (PSR sort gate)
1 | QVQLVESGGGLVPAGGSLRLSCAASGSTFVSKAMGWYRQAPGKERELLAAISTSGGSTYNADSVKGRVTISGDNAKNTVYLQMNSLKPEDTAVYYCAKLLAGGFRIWQDYDYWGQGTQVTVSS | low polyreactivity
2 | QVQLVESGGGLVPAGGSLRLSCDASGRTFWFYAMGWYRQAQGKERELVASITSGGGTNYADSVKGRFTISRDNAKNTVYLQMNSLKPEDTAVYYCAADRAYGVLGNEGGYWGQGTQVTVSS | high polyreactivity
3 | QVQLVESGGGLVPAGGSLRLSWAASGFIFGYNVMGWYRQAPGKVRELVAAISRGGSTNYADSVKGRFTISRDNAKKTVSGQMTSLKPEATAVYDCAARRYRPAAFDSWGQGTQVTVSS | high polyreactivity
4 | QVQLVESGGGLVPAGGSLRLTCAASGSTFGDYAMGWYRQAPGKERELVAAINFSDGSTYYADSVKGRFTISRDNAKNTVYLQMNSLKPEDTAVYYCAAYTYYDGVYGFDYWGQGTQVTVSS | low polyreactivity
5 | QVQLVESGGGLVQAAGSLRLICAASGSIFTRYTMGWYRQAPGKERELVAVISDSSGRTYYADSVKGRFTISRDNAKNTVYLQMNSLKPEDTAVYYCAAEYSDIYEYWGQGTQVTVSS | low polyreactivity
6 | QVQLVESGGGLVQAAGSLRLSCAASGGTFGWYAKGWYRLAHGKEREFLPAIRYSDGNTYYADSVKRRFTISRDNAKNSVYLQMNSLKPEDSAVYYCAADYVYAYIDGEVAEFYYWGPGTQVTVSS | high polyreactivity
7 | QVQLVESGGGLVQAAGSLRLSCAASGITFSRNGMGWYRQAPGKERELFAAISTSGDSTDYADSVKGRFTISRDNAKNTVYLQMNSLKPEDTAVYYCNRDFSLVVHYKFDYWGQGTQVTVSS | low polyreactivity
8 | QVQLVESGGGLVQAAGSLRLSCAASGSIFGAYAMGWYRQAPGKERELVAAINYGGATTYYADSVKGRFTISRDNAKNTVYLQMNSLKPEDTAVYYCAADYLYAYGDVAVVYGWYAYYYWGQGTQVTVSS | low polyreactivity
9 | QVQLVESGGGLVQAAGSLRLSCAASGYIFQYYAMGWYRQAPGKERELVAAITGGGSTKYADSVKGRFTISRDNAKNTVYLQMNSLKPEDTAVYYCAASLWYRISKYDYWGQGTQVTVSS | high polyreactivity
10 | QVQLVESGGGLVQAAGSLRLSCAASVGTFTPNVMGWSRKAPGKERELVAAIDDSGSRTYYADSVKGRFTISRVNAKNTVYLQMNSLKPEDTAVYYCAVYWYGTFPMYYWGQGTQVTVSS | low polyreactivity
11 | QVQLVESGGGLVQAAGSLRLSCAASVITFVKNAMGWYRQAPGKERELVARIRIGGSTSYADSVKGRFTISRDYAKNTFYLQLNSLKPEDTAVYYCARYAGRLSYRYEYWGQGTQVTVSS | high polyreactivity
12 | QVQLVESGGGLVQAAGSLRLSSAPSVSSFRNKAMGWYRQAPGKERELVASISSSGDSTYADSVKGRFTISRDNAKNTVSLQMNSLKPEDTAVYYCARDYLSPYAVDYWGQGTQVTVSS | low polyreactivity
13 | QVQLVESGGGLVQAARSHRVSCAASGSIFWGNVKGWYRQAPGNESELVAAINSGGSTYYADSVKGRFTISRDNAKNTVYLQMNSLIPEDTAVYYCAAAINRYRGTFNYWGQGTQVSVSS | high polyreactivity
14 | QVQLVESGGGLVQAEGSLRLSCAASGFIFRYNAMGWYRQAPGKERELVAAITSGGSTNYADSVKGRFTISRDNAKNTVYLQMNSLKPEDTAVYYCNKYRPYGRIYHLAYGRDYWGQGTQVTVSS | high polyreactivity
15 | QVQLVESGGGLVQAGAILRVSCAASGISLQYAMGCYRQAPGKERELVASISSRGTSTYYADSVKGRFTISRDNAKNTVYLQMNSLKPEDTAVYYCAARVRWWSPGGYWGQGTQVTVSS | high polyreactivity
16 | QVQLVESGGGLVQAGASLRLRCAASGRTFYYKTMGWYRQAPGKERELVAAITRNGGSTYYADSVKGRFTISRDKAKNTVYLQMKSLKLEDTAVYSCGAEGPSHRLNVRQVKGSDSWGQGTQVSVSS | low polyreactivity
17 | QVQLVESGGGLVQAGASLRLSCAASGFTFDSYAMGWYRQAPGKDRELVAVISATGAITYYADSVKGRFTISRDNAKNTVYLPMNSLKPEDTAVYYCAVQVSWSYYRYGYWGQGTQVTVSS | low polyreactivity
18 | QVQLVESGGGLVQAGASLRLSCAASGIIFNVKAMGWYRQAPGKERELVAAITSGANTYYADSVKGRFTISRDNAKNTVYLQMNSLKPEDSAVYYCNKVGSNSVGPGYDYWGHGTQVTVSS | high polyreactivity
19 | QVQLVESGGGLVQAGASLRLSCAASGIILSVYAMGWYRQAPGKERELVAAITTVGNTYYADSVKGRFTISRDNAKNTVYLEMNCLKPEDTAVYYCAAKRWTTYKYNYWGQGTQVTVSS | high polyreactivity
20 | QVQLVESGGGLVQAGASLRLSCAASGITLDLYDMGWYRQAPGKERELVAAISRSGVRTYYADSVKWRFTISRDNAKNTVYFQMNSLKPEDTSVYYCNKGYARRYASGYDYWGQGTQVSVSS | high polyreactivity
21 | QVQLVESGGGLVQAGASLRLSCAASGRIFSRNTMGWSRQAPGKECEFVAAISQSGGRTYYADSVKGRFTISRDNAKNTVYLQMNSLKPEDTAVYYCNAQFARSSGFNYWGQGTQVTVSS | high polyreactivity
22 | QVQLVESGGGLVQAGASLRLSCAASGRIFVVNAMGWYRQAPGKERELVATITRSGGITYYADSVKGRFTISRDNAKNTVYLQMNSLKPEDTAVYYCNADVLFYTYYTRGRFDFDYWGQGSQVTVSS | low polyreactivity

Row | Sequence | polyreactivity (PSR sort gate)
23 | QVQLVESGGGLVQAGASLRLSCAASGRTFEANTMGWYRQAPGKERELVAAITRNGGSTYYADSVKGRFTISRDNAKNTVYLQMNSLKPEDPAVYYCAARSAYRSRHKYDYWGQGTQVTVSS | high polyreactivity
24 | QVQLVESGGGLVQAGASLRLSCAASGRTFWFYAMGWYRQAPGQERELVAAISSGGSTNYADSVKGLFTISRDNAKNTVYLQMNSLKPEDTAVYYCAKVGNIPYGTRYYYNRYDYWGQGTQVTVSS | low polyreactivity
25 | QVQLVESGGGLVQAGASLRLSCAASGRTIYANAMGWYIQAPGKERELVAAISRRGGNTYYADSVKGRFTISRDNAKNTVYLQMNRLKPEDTAVYYCYAYGGGDYWGQGTQVTVSS | high polyreactivity
26 | QVQLVESGGGLVQAGASLRLSCAASGSIFFPYAMGWYRQAPGKERELVASITRAGSTNYADSVKGRFTISRDNAKNTVYLQMTSQKPVDTAVYYCAARNYRQFEYGYWGQGTLVTVSS | low polyreactivity
27 | QVQLVESGGGLVQAGASLRLSCAASGSTFLRNAMGWYRQAPGKKGSWVATISYDGDSTYYADSVKGRFTISRDNTKNTVYLQMNSLKPEDPAVYYCAASYSLTFWDKDDYWGQGTQVSVSS | low polyreactivity
28 | QVQLVESGGGLVQAGASLRLSCAASGSTFYGNTMGWYRQAPGKERELVAAITSTGRTYYADSVKGRFTLSRDNAKNTVYLQMNSLKPEDTAVYYCAASQRRRFQRPSFDYWGQGPQVTVSS | high polyreactivity
29 | QVQLVESGGGLVQAGASLRLSCAASGSTFYVNAMGWYRQAPGKERELVASISSSSGSTYYADSVKRRFTISRDNAKNTVYFQMNSLKPEDTAVYYCAAEVGIFIWFDYWGQGTQVTVSS | low polyreactivity
30 | QVQLVESGGGLVQAGASLRLSCAASGSTLWYYAMGWYRQAPGKERELVADITSSGNTNYADSVKGRFTISRDNAKNTVYLQMNSLKPEDTAVYYCAADSANYQWYLSWQKDDYWGQGTKVTVSS | low polyreactivity
31 | QVQLVESGGGLVQAGASLRLSCADSGIIFQVYAMGWYRQAPGKERELVAAISDDGSTNYADSVKGRFTISRDNAKNTVYLQMNSLKPEDTAVYYCAKESWGRLYYRYDYWGQGTQVTVSS | low polyreactivity
32 | QVQLVESGGGLVQAGASLRLSCSASGRTFLNYTMGWSRHAPGTERELVAAIRYRDGSTYYADSVKGRFTISRDNAKNTVYLQMNSLKPVDTAVYYCNTRITQVGDYIYDYWGQGTQVTVSS | low polyreactivity
33 | QVQLVESGGGLVQAGCILRLSCAASGFTFSWYAMGWYRQARGKERELVAAISYSGDSTYYADSVKGRFTISRDNAKNTVYLQMNSLKPEDTAVYYCARRSYYATYYPQPFGYNYLGQGTQVTVSS | high polyreactivity
34 | QVQLVESGGGLVQAGCSGSLSCAASGRIFQRNSMGWYRQAPGKEREFVAAITKSGGGTYADSVKGRFTISRDNAKNTVYLQMNSLKPEDTAVYYCNVVPVWRPYSLINWQKHFGYWGQGTQVTVSS | high polyreactivity
35 | QVQLVESGGGLVQAGCSLRISCAASGFTFAHNEMGWSRQAPGKERELVAAISSRGGRTFYADSVKGRFTISRDNAKKTVYLQMNSLKPEDTAVDYCNRVRSVQYDYWGQGSQVTVSS | high polyreactivity
36 | QVQLVESGGGLVQAGCSLRLICAASGRIFSTYAMGWYRQAPGKERELVAAITSRGGSTYYADSVKGRFTISRDNAKNTVYLQMNSLKPEDTAVYYCATESPYKWGGYRFYYWGQGTQVTVSS | high polyreactivity
37 | QVQLVESGGGLVQAGCSLRLSCAASGFIFVGKDMGWYRQAPGKERELVAAISSGGTTNYADSVKGRFTISRDNAKNTVYLQMNSLKPEDTAVYYCAADFDYRQGYDSFHLDYWGQGTQVTVSS | low polyreactivity
38 | QVQLVESGGGLVQAGCSLRLSCAASGFIFYDYDMGWYRQAPGKERELVAAITYSGGSTYYADSVKGRFTISRDNAKNTVYFQMNSLKPEDTAVYYCAAVKSRYAEAVDYYYWGQGTQVTVSS | low polyreactivity
39 | QVQLVESGGGLVQAGCSLRLSCAASGFTFFKYAMGWYRQAPGTERELVAAITRNGGRTYYADSVKGRFTISRDNAKNTVYLQMNSLKPEDTAVYYCAARYANLRNGYRYDYWGQGTQVTVSS | high polyreactivity
40 | QVQLVESGGGLVQAGCSLRLSCAASGGTFGRYAMGWYRQAPGTERELVASITTGGRTNYADSVKGRFTISRDNAKNTVYLQMNSLKPEDTAVYYCAKKRYGYPVPFYYWGQGTQVTVSS | high polyreactivity
41 | QVQLVESGGGLVQAGCSLRLSCAASGGTFYVNAMGCYRQAPGKDRELVAGIRESGASTYYADSVKGRFTISLDNAKNTVYLQMNSLKPEDTAVYYCAVDGPYPAASQSEVGYDYWGQGTQVTVSS | low polyreactivity
42 | QVQLVESGGGLVQAGCSLRLSCAASGRIFSRYTMGWSRQAPGKERELVAAISSGGSTYYADSVKGRFTISLDNAKNTVYFQMNSLKPEDTAVYYCNTRYVGQRSTWVDQVRRYDYCGQGTQVTVSS | high polyreactivity
43 | QVQLVESGGGLVQAGCSLRLSCAASGRIFYYNTMGWYRQAPGKERELVAAINFSGDRTYYADSVKGRFTISRDNAKNTVYLQMNSLKPEDTAVYYCAAQGYWYGYQPGNFWGQGTQVTVSS | high polyreactivity
